Where no end group is shown, it is not given here.
B1: Phage-486 (peptide, not shown: large carriers)
peptide: YCEGHLPEYLGKCL
notes: Clonal phage of the Peptide-87 optimisation library, tested as crude supernatant
B2: Phage-488 (peptide, not shown: large carriers)
peptide: YCEGHLPEYLAKCL
notes: as for B1
B3: Phage-487 (peptide, not shown: large carriers)
peptide: YCEGHLPEYREKCL
notes: as for B1
B4: Phage-493 (peptide, not shown: large carriers)
peptide: YCEGHLPEYRNKCL
notes: as for B1
B5: Phage-489 (peptide, not shown: large carriers)
peptide: YCEGHSQEYLWKCL
notes: as for B1
B6: Phage-490 (peptide, not shown: large carriers)
peptide: YCEGHSSEYIQKCL
notes: as for B1
B7: Phage-491 (peptide, not shown: large carriers)
peptide: HCSGHHWLQVWKCF
notes: as for B1
B8: Phage-492 (peptide, not shown: large carriers)
peptide: YCWSHSPPFIKKCY
notes: as for B1
B9: Phage-494 (peptide, not shown: large carriers)
peptide: YCEGHLPEYLEKCV
notes: as for B1
B10: Phage-495 (peptide, not shown: large carriers)
peptide: YCEGHLPEYIQKCL
notes: as for B1
B11: Phage-496 (peptide, not shown: large carriers)
peptide: YCEGHLPEYIWKCL
notes: as for B1

Assays:
[1] = target: T1, Anti-CD28 Fab (SEQ ID NOs: 696, 697); assay: phage binding ELISA; biotinylated anti-CD28 Fab on neutravidin plate, clonal phage supernatant, anti-M13 HRP detection
T1 construct: Biotinylated and captured on neutravidin coated plates in the phage ELISA
T1 sequence (VH, as listed by the source, chain 1 of 2): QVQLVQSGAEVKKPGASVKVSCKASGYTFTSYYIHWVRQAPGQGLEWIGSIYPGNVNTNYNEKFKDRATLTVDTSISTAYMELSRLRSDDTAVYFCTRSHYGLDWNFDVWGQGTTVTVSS
T1 sequence (VL, as listed by the source, chain 2 of 2): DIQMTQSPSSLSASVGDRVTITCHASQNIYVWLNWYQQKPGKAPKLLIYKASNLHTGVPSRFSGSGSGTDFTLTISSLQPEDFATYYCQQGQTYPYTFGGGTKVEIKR

[2] = target: T1, Anti-CD28 Fab (SEQ ID NOs: 696, 697); assay: phage binding ELISA; Fab-coated wells pre-incubated with CD28 antigen as competitor, anti-M13 HRP detection;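 note: crude clonal phage supernatants from panned colonies added to wells after blocking buffer plus CD28 treatment, bound phage measured after a brief incubation and washing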
006 PSMA Fab [3] = target: T2, 006 PSMA Fab; assay: clonal phage ELISA; biotinylated PSMA Fab on neutravidin plate, bound phage detected with anti-M13-HRP
T2 construct: also called Anti-PSMA Fab
Description: (§1) Clonal phage were harvested as crude supernatants and screened via standard ELISAs. […] Prior to the addition of clonal phage. wells were incubated with blocking buffer and PSMA antigen or blocking buffer alone. Without washing or aspirating, clonal phage supernatants were then added to the wells and incubated for a short time. Wells were then washed followed by detection of bound phage using a horse radish conjugated anti-M13 antibody.

006 PSMA Fab [4] = target: T2, 006 PSMA Fab; assay: clonal phage ELISA; biotinylated PSMA Fab on neutravidin plate, PSMA antigen as competitor, anti-M13-HRP
Description: as §1

[5] = target: T3, PSMA Fab (SEQ ID NOs: 19, 20); assay: competition ELISA, peptide titrated against 0.3 nM PSMA Fab on captured biotinylated PSMA
T3 construct: also called 006 PSMA Fab; anti-PSMA Fab
Description: The concentration of peptide required to reduce the maximum signal by 50% (IC₅₀) was calculated in Graphpad Prism software.

Binder	Anti-CD28 Fab signal (phage binding ELISA) [1]	Anti-CD28 Fab signal in the presence of CD28 (phage binding ELISA) [2]	Phage binding ELISA signal, Anti-PSMA Fab (006 PSMA Fab [3])	phage binding ELISA signal (Anti-PSMA Fab, wells pre-incubated with PSMA antigen) (006 PSMA Fab [4])	IC50 [5]
B1	1.23	0.08			
B2	2.34	0.1			
B3	1.96	0.07			
B4	2.38	0.17			
B5	2.36	0.07			
B6	2.25	0.1			
B7	2.31	0.07			
B8	2.06	0.06			
B9	2.11	0.06			
B10	1.9	0.08			
B11	2.32	0.09			
QEMTCVPRWMCSGF [Phage-4000]			0.566	0.0832	
DGLICQPSWMCTGL [Phage-4001]			0.554	0.0705	
MTNMCRPSWMCAVF [Phage-4002]			0.551	0.108	
DIEVCRPHWMCEGF [Phage-4003]			0.542	0.0801	
EVKKCVPAWMCESQ [Phage-4004]			0.542	0.0538	
LTSWCVPQWMCDGL [Phage-4005]			0.523	0.0623	

Binder	Anti-CD28 Fab signal (phage binding ELISA) [1]	Anti-CD28 Fab signal in the presence of CD28 (phage binding ELISA) [2]	Phage binding ELISA signal, Anti-PSMA Fab (006 PSMA Fab [3])	phage binding ELISA signal (Anti-PSMA Fab, wells pre-incubated with PSMA antigen) (006 PSMA Fab [4])	IC50 [5]
HVTMCSPNWMCWGL [Phage-4006]			0.485	0.0703	
PTSFCRPPWMCEGL [Phage-4007]			0.475	0.0592	
IMQRCEPLWMCSGL [Phage-4008]			0.471	0.0777	
GPKLCLPMWMCQGF [Phage-4009]			0.459	0.0611	
HCKFHDYHSWYVCY (cysteine pairing not given here; also: biotinylated, site not given here, PSMA peptide mask (P2)) [Peptide-212]					6.39 µM
SKLLCVPPWMCYHV (cysteine pairing not given here; also: biotinylated (site not given here), PSMA peptide mask (P2)) [Peptide-194]					10.3 µM
QLPCHYWGEWCPQA (cysteine pairing not given here; also: biotinylated (site not given here), PSMA peptide mask (P2)) [Peptide-195]					19.3 µM
LTRCVPDWMCYRAV (cysteine pairing not given here; also: biotinylated (site not given here), PSMA peptide mask (P2)) [Peptide-198]					18.9 µM
ILPCHWYTSDCPQH (cysteine pairing not given here; also: biotinylated (site not given here), PSMA peptide mask (P2)) [Peptide-200]					12.2 µM
MCQWDELNYWMDCD (cysteine pairing not given here; also: biotinylated (site not given here), PSMA peptide mask (P2)) [Peptide-202]					11 µM
QCVWDNFNYWMDCD (cysteine pairing not given here; also: biotinylated (site not given here), PSMA peptide mask (P2)) [Peptide-203]					36.1 µM
QCTWNEKTWWMECE (cysteine pairing not given here; also: biotinylated (site not given here), PSMA peptide mask (P2)) [Peptide-204]					9.07 µM
MCQWDKINYWMDCD (cysteine pairing not given here; also: biotinylated (site not given here), PSMA peptide mask (P2)) [Peptide-205]					5.52 µM
QCVWDLTNYWMNCD (cysteine pairing not given here; also: biotinylated (site not given here), PSMA peptide mask (P2)) [Peptide-206]					28.7 µM
DCHWNKATWWMDCE (cysteine pairing not given here; also: biotinylated, site not given here, PSMA peptide mask (P2)) [Peptide-207]					9.86 µM
QCVWDRGTWWMACD (cysteine pairing not given here; also: biotinylated, site not given here, PSMA peptide mask (P2)) [Peptide-209]					10.2 µM
